The record followed here is patent publication US20230393135A1.

Test [1] deals with SARS-CoV-2 S protein trimer with the K417N/E484K/N501Y mutations (present in the B.1.351 variant) (SARS-CoV-2) (UniProt P0DTC2).
The target in test [2] is SARS-CoV-2 S protein trimer with the Δ69-70 Y453F mutations (present in the mink variant) (SARS-CoV-2) (UniProt P0DTC2).

With REGN10933 neutralizing antibody, the fold loss in IC80 activity in test [1] amounted to 61 fold; in test [2] it was 67 fold.
